The record followed here is the nanobody polyreactivity screen of Harvey et al. (2022).

The series is described as follows: yeast display, Sf9 membrane polyspecificity reagent, FACS + sequencing; frameworks hold sequencing errors. The procedure, abridged:
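Galactose induction of a Saccharomyces cerevisiae BJ5465 synthetic nanobody display library ran 36–48 hours. The cells were then stained for 1 hour at 4 °C with 10% biotinylated, detergent-solubilized Sf9 membrane reagent, pulled down on streptavidin microbeads and FACS-sorted into low and high (top ~1%) gates on expression and reagent-binding fluorescence. Labels for polyreactivity follow the gate of origin.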
As to “QVQLVESGGGLVQAGGSLRLSCAASGRTFDTNPMGWYRQAPGKERELVAVITARGGNTSYADSVKGRFTISRDNAKNTVYLQMNSLKPEDTAVYYCAARVYRAPWTYEEGNYWGQGTQVTVSS”, the “polyreactivity (PSR sort gate)” value is “low polyreactivity”.

With “QVQIVESGGGLVQAGGSLRISCAASGRTFYWNAMGWNREAPGKEMELVSAISDGGGSTYYADSVKGRFSISRDNAKNTVYLQMNSLKPEDTAVYYCNTPDNQDKPYPGYDYWGQGTQVTVSS”, the “polyreactivity (PSR sort gate)” value was “low polyreactivity”.

Regarding “QVQLVESGGGLVQAGGSLRLSCAASGSTFPYNARGWYRQAPGKETELVAAISSSGGSTYYADSVKGRFTISRDNAKNTVYLQMNSLKPVDTEVYYCNAVLRYSIYPSSSFSYVGYYYWGQGTQVSVSS”, the “polyreactivity (PSR sort gate)” value is given as “high polyreactivity”.

Turning to “QVQLVESGGGLVQAGGSLRLSCADSGTTFVKYAMGWYRQAPGKERELVAAISSRGGRTYYADSVKGRFTISRDNAKNTVYLQMNSLKPEDTEVYYCNKGTRLDGEYEYWGHGTQVTVSS”, the “polyreactivity (PSR sort gate)” value was “high polyreactivity”.

Turning to “QVQLVESGGGLVQAGGSLRLSCAASGSISAAYAMGWYRQAPGKERELVADISSSGVSTYYADSVKGRFTISRDNAKNTVYLQMNSLKQEDTAVYYCAKNRVAGYRKYDYWGQGTQVTVSS”, the “polyreactivity (PSR sort gate)” value is “low polyreactivity”.

As to “QVQLVESGGGLVQAGGSLRLSCAASGIIFDCNAMGCYRQAPGKERELVAANTSSTDSTYYADSVKGRFTISRDNAKNTVYLQMNILKPEDTAVYYCAAAYPSKTFDYWGQGTHVTVSS”, the “polyreactivity (PSR sort gate)” value is reported as “low polyreactivity”.

On to “QVQLVESVGGLVQAGGSLRLSCASSGLIFPIYTMGWYRQAPGKERELVAASSSRGGSTYYADSVKGRFTISRDNAKNSVYLQMNCLKPEDTAVYDFGSYDYSGQGTQVTVSS”, for which the “polyreactivity (PSR sort gate)” value is “high polyreactivity”.

For “QVQLVESGGGLVQAGGSLRLSCAASGRIIWANTMGCYRQAPGKEREFVAAISWSTDSTYYADSVKGRFTISRDNAKNTVYFQMNSLKPEDTAVYYCNARAGYPWGVFYVTYVYWGQGTQVTVSS”, the “polyreactivity (PSR sort gate)” value is on record as “low polyreactivity”.

With “QVQLVESGGGLVQAGGSLRLSCAASASIFWYNSMGWYRQAPGKEREFVDSISGSGTSTYADSVKGRFTISRDNAKNTVYLQMNSLKPEDTAVYYCIAYYEYSWLYSNWLYGKYDYWGQGTQVTVSS”, the “polyreactivity (PSR sort gate)” value is listed as “low polyreactivity”.

As to “QVQLVESGGGLDQAGGSLRLSCAASGFIFRYYTMGWYRQAPGKERELFATITSGGSTYYADSVKGRFTISRDNAKNTVYLQMNSLKPEDTAVYYCAKYHSLRRQYSKFRPTFDYWGQGTQVTVSS”, the “polyreactivity (PSR sort gate)” value is listed as “high polyreactivity”.

In the case of “QVQLVESGGGLVQAGGSLRLSCAASGIIFRWYAMGWYRQAPGKERELVAAITRSGGSTYYADSVKGRFTISRDNAKNTVYLQMNSLKPEDTAVYYCAAEYYAPSYKFDYWGQGTQVTVSS”, the “polyreactivity (PSR sort gate)” value is reported as “high polyreactivity”.

As for “QVQLVESGGGLVQAGGSLRLSCAASGFTFYRNAMGWYRQAPGKERELVAGISKRGGSTYYADSVKGRFTISRDNAKNTVYLLMNSLKPEDTAVYYCARGGYPGSAEYDYWGQGTQVTVSS”, the “polyreactivity (PSR sort gate)” value is “high polyreactivity”.

Regarding “QVQLVESGGGLVQAGGSLRLSCAASGRIFQTYTMGWYRQAPGKERELVARITGGDSTYYADSVKGRFTISRDNAKITVYLQMNSLKPEDTAVYYCAAEVWSYWGTFNYWGQGTQVTVSS”, the “polyreactivity (PSR sort gate)” value is “low polyreactivity”.

With “QVQLVESGGGLVQAGGSLRLSCAASGRIFTSNAMGWYRLAPGKERELVAAISSSSGSTYYADSVKGRFTISRDNAKNTVYLQMNSLKPEDTAVYYCAARTWRVSGTYKYDYWGQGTQVTVSS”, the “polyreactivity (PSR sort gate)” value was “low polyreactivity”.

Take “QVQLVESGGGLVQAGGSLRLSCAASGFTFYGYAMGWYRQAPGKERELVAAISSRGSRTYYADSVKGRFTISRDNAKNTGYLQMNSLKPEDTAFYYCAVDKAITQGLYDYWGQGTQVTVSS”: the “polyreactivity (PSR sort gate)” value was “high polyreactivity”.

Consider “QVQLVESGGGLVQAGGSLRLSSAASGSTLTFNAMGWYRQAPGKERELVAAISWSDTDTYYADSVKGRFTISRDNAKNTVYLQMNSLKPEDTAVYYCAATVSAYEMDYWGQGTQVTVSS”, for which the “polyreactivity (PSR sort gate)” value is on record as “low polyreactivity”.

For “QVQLVESGGGLVQAGGSLRLSCAASGGTFSVYGMGWYRPAPGKERDLVAVINGTDGITYYADSVKARVTISRDNAKNTVYLQMNSLKPEDTAVYDCAKDSDFLAYHGLDHWGQGTLVTVSS”, the “polyreactivity (PSR sort gate)” value is “low polyreactivity”.

Turning to “QVQLVESRGVLVQAGGSIRLSCAASGFSIDYYAMGWYRPAPGKERELVAAITTSGGRTYYADSVKGRFTIARDYAKNTVYLQMNSLKPEDTAVYYCAVVTWIYGTRFNYWGQGTQVTVSS”, the “polyreactivity (PSR sort gate)” value is “high polyreactivity”.

Regarding “QVQLVESGGGLVQAGGSLRLSCAASGFTIYLYTMGWYRQAPGKERELVATISWSGGSTYYADSVKGRFTISRDNAKNNVYLHMNSLKPEDTAVYYCAKAYNGRYTWRYDYWGQGTQVTVSS”, the “polyreactivity (PSR sort gate)” value was “high polyreactivity”.

For the sequence “QVQLVESGGGLVQAGGSLRLSCAASGSTSPGYAMGWYRLEPGKERELVAAITFRGTRTYYADSVKGRFTISRDNAKKTVYLLMNSLKPEDTAVYYCNVVGYGPNRGRVDYWGQGTQVTVSS”, the “polyreactivity (PSR sort gate)” value is “high polyreactivity”.

In the case of “QVQLVESGGGLVQAGGSLRLSCAASGITFPGYAMGWYRQAPGKERELVAAISTSGGSTYYADSVKGRFTISRDNAKNTVYLQMNSLTPDDTAVYYCNARLVYYSYEEMDYWGQGTQVTVSS”, the “polyreactivity (PSR sort gate)” value is given as “low polyreactivity”.

Turning to “QVQLVESGGGLVQAGGSLRLSCAASGRIFHIYAMGWYRQAPGKERELVAAIRSSGGSTYYADSVKGRFTISRDNAKNTVYLQMNSLKPEDTAVYYCAVDYGNPVYWDEMYYWGQGTQVTVSS”, the “polyreactivity (PSR sort gate)” value was “low polyreactivity”.

Consider “QVHLVESGGGLVQAGGSLRLSCAASGSTFDPNAMGWYTQAPGKERELVAAISYTGGRTYYADSVKGRFTISRDKAKNTVYLQMNSLKPEATAVYYCAVLVVGSPTQDEPYVSGVEHDYWGQGTQVTVSS”, for which the “polyreactivity (PSR sort gate)” value was “low polyreactivity”.

As for “QVQLVETGGGLVQAGGSLRLSSAASGGIFSPNAMGWYRQAPGKEREFVAAISSNGGSTNYADSVKGRFTISRDNAKNTVYLQMNSLKPEDTAVYYCAADYPDHPLWGPEYDYWGQRTQVTVSS”, the “polyreactivity (PSR sort gate)” value is listed as “low polyreactivity”.

Consider “QVQLVESGGGLVQAGGSLRLSCAASGGTLFTNAMGWYRQAPGKERELVAAISWRGGRTYYADSVKGRFTISRDNAKNTVYLQMNSLKPEDSAVYYCAADVSAVQGYYYWGQGTQVTVSS”, for which the “polyreactivity (PSR sort gate)” value is given as “low polyreactivity”.

As to “QVQLVESGGGLVQAGGSLRLSCAASGFIFGRYAMGWYRQAPGKETELVAAISVSGGSTYYADSVKGRFTISRDNAKNTVYLQMNSLKPEDTAVYYCNVARWVSVSRSYGGNYWGQGTQVTVSS”, the “polyreactivity (PSR sort gate)” value is recorded as “high polyreactivity”.

For the sequence “QVQLVESGGGLVQAGGSLRLSCAASGITFGINAMGWYRQAPGKERELVAAITSGGSTYYADSVKGRFTISRDNAKNTVYLQMNSLKPEDTAVYDCAADYQYFVYCEYDYWGQGTQVTVSS”, the “polyreactivity (PSR sort gate)” value is on record as “low polyreactivity”.

As for “QVQLVESGGGLVQAGGSLRLSCAASGTIFYDNDMGLYRQAPGKERELVAAISWSASDTYYADSVKGRFTISRDNAKNTVFLQMMSLKPEDTAVYYCNAEVYEWYVVYSALDYWGQVTQVTVSS”, the “polyreactivity (PSR sort gate)” value is “low polyreactivity”.

On to “QVQLVESGGGLVQAGGSLRLSCAASGYTLYLNAMGWYRQAPGKERELFARISGGGSTNYADSVKGRFTISRDNAKNTVYLQMNSLKPEDTAVYYCAATIFAYGYRSFKLDYWGQGTQVTVSS”, for which the “polyreactivity (PSR sort gate)” value is on record as “low polyreactivity”.

On to “QVQLVESGGGLVQAGGSLRLSCAASGRIFDGNAMGWYRQAPGKERELVATITRGGRTNYADSVKGRFTISRDNAKNTVYLQMNSLKPEDTAVYYCNARGSERVDTYSLYDYWGQGTQVTVSS”, for which the “polyreactivity (PSR sort gate)” value is “low polyreactivity”.

Take “QVQLVESGGGLVQAGGSLRLSCAASGRIFISNAMGWYRQAPGKERELVAAITWIGDRTYYADSVKGRFTISRDNAKITVYLQMNSLKPEDTAVYYCNRVTSRVSGRYSYDYWGQGTQVTVSS”: the “polyreactivity (PSR sort gate)” value is on record as “high polyreactivity”.

On to “QVQLHESGGGLVQAGGGLRLSSAASGSISSTGFMGWYRQAPGKEREPVAAIAPGTTTYYADSVKGRFTISRDNAKNTVYLQMNSLRPEDTAVYYCAVFTDNRVAFLYWGQGTQVTVSS”, for which the “polyreactivity (PSR sort gate)” value was “low polyreactivity”.

With “QVQLVESGGGLVQAGGSLRLSCAASGITYSYNAMGWSRQAPGKERELVAAISSNSDSTYFADSVMGRFTISRDNAKNTVYLQMNSLKPEDTAVYYCAADTPDAAVYSGFYYWGQGTQVTVSS”, the “polyreactivity (PSR sort gate)” value was “low polyreactivity”.

Consider “QVQLVESGGGLVQAGGSLRLSCAASGSIIVRYAMGWYRQAPGKERALVATITFRDTSTYYADSVKGRFTITRDNAKNTVYLQMNSLKPEDTAVYYCAAVRADLWDIARYDYWGQGTQVTVSS”, for which the “polyreactivity (PSR sort gate)” value was “low polyreactivity”.

Consider “QVQLVESGGGLVQAGGSLRLSCAASGNTFRNYAMGWYRQAPGKERELVAAISWTGARTYYADSVKGRFTISRDNAKNTVYLQMNSLKPEDTAVYYCARPLQWWSPSGTVDYGYWGQGTQVTVSS”, for which the “polyreactivity (PSR sort gate)” value was “high polyreactivity”.

As to “QVQLVESGGGLVQAGGSLRLSCAASGRIFRSYAMGWYRQAPGKERELVAAISRSGGSTYYADSVKGRFTISRDNAKNTVYLQMNSLKPEDTAVYYCAGVYTYPLGYYHYTYDYWGQGTQVTVSS”, the “polyreactivity (PSR sort gate)” value is “low polyreactivity”.

On to “QVQLVESGGGLVQAGGSLRLSCAASGSIFVHNAMGWYRQAPGKERELVAAITWSGGSTYYADSVKGRFTISRDNAKNTVYLQMNSLKPEDTAVYYCNATYSVRYYLEFLNEPEMDYWGQGTQVTVSS”, for which the “polyreactivity (PSR sort gate)” value is “low polyreactivity”.

Consider “HVQLVESAGGLVPAGGSLRLSCAASGFIVWWYPMGWYRQAPGKERELVASITRGGRTNYADSVKGRFTISRDNAKNTVYLHMNSLKPEDTAVYYCAADVLLSRSNTPQRPSRLYYWGQVTQVTVSS”, for which the “polyreactivity (PSR sort gate)” value was “high polyreactivity”.

As for “QVQLVESGGGLVQAGGSLRLSCAASGFTFPSNGMGWYRQAPGKERELVAVIDWSDDSTYYADSVKGRFTISRDNAKNTVYLQMNSLKPEDTAVYYCNARHYLYHGYIVPKYSYGYDYWGQGTQVTVSS”, the “polyreactivity (PSR sort gate)” value is “low polyreactivity”.

Turning to “QVQLVESGGGLVQAGGSLRLSCAASGSTFTGYAMGWYRQAPGQERELVAAISRSGGSTYYADSVKGRFTISRDNAKNTVYLQMNSLKPEDTAVYYCNARGFTRYTVGRNYWGQGTQVTVSS”, the “polyreactivity (PSR sort gate)” value is given as “high polyreactivity”.
